For the experiment, the target named is CyOFP1. Nature of the experiment: SEC; FPLC on Superdex 75 10/300 GL; elution in 20 mM Tris-HCl (pH 7.80), 200 mM NaCl; oligomeric state from the elution volume against molecular weight standards. Background: SEC sorts molecules by how far they enter the pores of the column.

In general, stoichiometry N refers to the number of molecules, sites or subunits per partner or assembly. On to CyOFP1, for which the stoichiometry N was found to be 2.

For the origin of these results see article PMC8657457.
